Data on 30 molecules can be found in US20050089937A1 (H LUNDBECK A S, published 2005).

Non-standard residues stand in square brackets, D forms with d. No end group written: not given here. *: point of attachment. NMeF = CN[C@@H](Cc1ccccc1)C(=O)O; 125I = [125I]*

For experiment [1], the target named is T1, rat neuropeptide FF receptor (NPFF1) (rat, UniProt Q9EP86 1-432). The experiment in a line: competition with [125I]D-Tyr-NPFF, membranes of COS-7 cells with rat NPFF1. The text has this:
(§1) Cos-7 cells transiently expressing the gene encoding the novel rat NPFF1 receptor were used for pharmacological evaluation.

The target of experiment [2] is rat spinal cord membrane receptor. The experiment in a line: competition with [125I]D-Tyr-NPFF, rat spinal cord membranes.
Experiment [3] deals with rat neuropeptide FF receptor (NPFF1) (rat) (UniProt Q9EP86). The experiment in a line: competition with [125I]D-Tyr-NPFF, membranes of COS-7 cells with rat NPFF1.
Experiment [4] concerns the target T2, human neuropeptide FF receptor (NPFF1) (human, UniProt Q9GZQ6 1-430).
T2 construct: also called human NPFF1; hNPFF1
Description: competition with [125I]D-Tyr-NPFF, HEK-293 cells with the cloned receptor. The text has this:
(§2) Additional pharmacological evaluation was done using 293 human embryonic kidney cells (HEK-293 cells) transiently expressing the genes encoding the human NPFF1, NPFF2, and rat NPFF1 receptors, as well as Cos-7 cells expressing the rat NPFF2 receptors.

In experiment [5] the target is T1, rat neuropeptide FF receptor (NPFF1). The experiment is described as above.
Excerpt: as §2

The target in experiment [6] is T3, human NPFF2b (hNPFF2) receptor (human, UniProt Q9Y5X5 103-522).
T3 construct: also called NPFF-like; hNPFF-like
Described as above.
Excerpt: as §2

Experiment [7] addresses T4, rat neuropeptide FF receptor (NPFF2) (rat, UniProt Q9EQD2 1-417).
T4 construct: Full-length cloned receptor; Also the native receptor in rat brain sections (autoradiography); also called rat NPFF2
The experiment in a line: competition with [125I]D-Tyr-NPFF, cloned receptor (head: HEK-293; text: Cos-7).
Excerpt: as §2

In experiment [8] the target is T1, rat neuropeptide FF receptor (NPFF1). The experiment in a line: cell-based or functional assay.
Experiment [9] concerns the target T5, rat neuropeptide FF receptor (NPFF1) (rat), Q9EP86.
T5 chain: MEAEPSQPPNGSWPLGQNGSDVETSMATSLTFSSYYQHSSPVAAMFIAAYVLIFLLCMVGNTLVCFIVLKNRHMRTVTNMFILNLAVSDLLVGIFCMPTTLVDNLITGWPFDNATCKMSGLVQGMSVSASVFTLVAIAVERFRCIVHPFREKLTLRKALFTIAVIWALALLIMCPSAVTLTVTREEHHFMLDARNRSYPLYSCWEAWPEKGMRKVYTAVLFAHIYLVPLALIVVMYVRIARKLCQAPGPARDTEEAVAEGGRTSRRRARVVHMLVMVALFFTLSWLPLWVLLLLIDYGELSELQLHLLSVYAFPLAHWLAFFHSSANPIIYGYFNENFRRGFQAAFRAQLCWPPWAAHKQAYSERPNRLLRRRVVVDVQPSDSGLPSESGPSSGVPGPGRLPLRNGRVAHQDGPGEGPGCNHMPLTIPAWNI
The experiment in a line: competition with [125I]D-Tyr-NPFF, membranes of COS-7 cells with rat NPFF1.

Experiment [10] deals with T4, rat neuropeptide FF receptor (NPFF2). The experiment in a line: radioligand binding to cloned rat NPFF2, as told in the discussion.
The target in experiment [11] is T2, human neuropeptide FF receptor (NPFF1). The experiment in a line: radioligand saturation binding, transiently transfected HEK-293 cells.
The target in experiment [12] is T1, rat neuropeptide FF receptor (NPFF1). The description is as above.
Experiment [13] has as its target T3, human NPFF2b (hNPFF2) receptor. The description is as above.
In experiment [14] the target is T1, rat neuropeptide FF receptor (NPFF1). The experiment in a line: radioligand saturation binding, membranes of Cos-7 cells transiently expressing rat NPFF1.
Excerpt: as §1

Experiment [15] addresses T4, rat neuropeptide FF receptor (NPFF2). The experiment in a line: radioligand saturation binding, Cos-7 cells expressing rat NPFF2.
Excerpt: as §2

The target is the same in experiment [16]. Description: competition binding, HEK-293 cells with the cloned receptor.
Experiment [17] addresses T1, rat neuropeptide FF receptor (NPFF1). Description: cell-based or functional assay. This is another data set of the same source.
For experiment [18], the target named is T2, human neuropeptide FF receptor (NPFF1). The experiment in a line: cell-based or functional assay.
The target of experiment [19] is T3, human NPFF2b (hNPFF2) receptor. The experiment in a line: cell-based or functional assay.

T2 sequence (Q9GZQ6 whole entry): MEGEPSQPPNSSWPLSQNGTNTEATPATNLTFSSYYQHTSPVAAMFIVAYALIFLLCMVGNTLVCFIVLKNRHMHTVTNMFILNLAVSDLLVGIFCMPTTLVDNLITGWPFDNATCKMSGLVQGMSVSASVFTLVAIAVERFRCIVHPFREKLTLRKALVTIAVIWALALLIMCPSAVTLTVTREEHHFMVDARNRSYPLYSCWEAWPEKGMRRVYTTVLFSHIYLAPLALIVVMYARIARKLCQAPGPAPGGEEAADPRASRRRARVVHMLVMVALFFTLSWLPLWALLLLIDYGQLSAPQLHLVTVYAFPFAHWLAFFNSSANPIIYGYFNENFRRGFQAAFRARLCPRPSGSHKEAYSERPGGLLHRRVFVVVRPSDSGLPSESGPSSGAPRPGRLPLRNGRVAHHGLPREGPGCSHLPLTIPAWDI
T3 sequence (Q9Y5X5 103-522): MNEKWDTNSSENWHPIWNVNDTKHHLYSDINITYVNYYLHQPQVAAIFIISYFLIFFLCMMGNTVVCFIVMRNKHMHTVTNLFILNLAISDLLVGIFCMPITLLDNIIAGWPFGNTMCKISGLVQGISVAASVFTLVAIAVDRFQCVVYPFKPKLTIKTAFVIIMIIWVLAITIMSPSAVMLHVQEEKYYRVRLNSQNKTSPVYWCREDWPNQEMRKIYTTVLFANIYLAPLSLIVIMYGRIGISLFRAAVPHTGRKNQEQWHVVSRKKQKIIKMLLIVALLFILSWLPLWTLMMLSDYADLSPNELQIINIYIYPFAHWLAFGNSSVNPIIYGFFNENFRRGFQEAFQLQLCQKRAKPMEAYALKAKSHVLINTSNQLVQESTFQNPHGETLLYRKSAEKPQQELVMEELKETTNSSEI
T4 sequence (Q9EQD2 whole entry): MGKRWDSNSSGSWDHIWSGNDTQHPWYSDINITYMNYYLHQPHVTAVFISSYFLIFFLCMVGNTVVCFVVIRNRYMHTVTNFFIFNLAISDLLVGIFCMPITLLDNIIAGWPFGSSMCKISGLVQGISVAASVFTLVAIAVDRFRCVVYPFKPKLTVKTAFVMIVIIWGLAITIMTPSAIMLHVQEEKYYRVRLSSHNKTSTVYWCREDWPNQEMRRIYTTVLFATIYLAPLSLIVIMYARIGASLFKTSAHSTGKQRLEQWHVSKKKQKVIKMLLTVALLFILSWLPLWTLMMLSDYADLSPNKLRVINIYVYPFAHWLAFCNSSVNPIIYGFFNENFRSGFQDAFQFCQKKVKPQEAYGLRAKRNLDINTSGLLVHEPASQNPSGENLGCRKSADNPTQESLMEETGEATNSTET

Neuropeptide F: the results for the pKi in [1] and in experiment [2] were 6.11 and 8.1, respectively.
desamino-nor-Y8Ra (peptide): the pKi in experiment [1] is 7.27; in experiment [2] it was 7.51.
For the molecule (3D)Y8Fa (peptide), the pKi in [3] was found to be 8.62; in [2], 9.12.
In experiment [2], “Dynorphin A1-13 (from UniProt P01213 207-219) (peptide)” returned a pKi of 5.7.
In the case of (2D)Y8Fa (peptide), the pKi in experiment [3] was 8.33; in experiment [2], 9.21.
In experiment [2], Neuropeptide FF (NPFF) came in with a pKi of 9.05.
With (2DME)Y8Fa (peptide), the values for the pKi in experiment [3] and in experiment [2] were 9.2 and 9.57, respectively.
With CGRP (peptide), the pKi in experiment [1] and in experiment [2] was 5 in each case.

B1: Met5-Arg6-Phe7-Enk-OH (peptide)
peptide: YGGFMRF-OH
In the case of B1, the pKi in [1] and in [2] was 5 throughout.

B2: (D-Tyr^1-(NMe)Phe^3)NPFF (peptide)
peptide: [dY]L[NMeF]QPQRF-NH2
modifications: N-terminus assumed
SMILES: CC(C)C[C@H](NC(=O)[C@H](N)Cc1ccc(O)cc1)C(=O)N(C)[C@@H](Cc1ccccc1)C(=O)N[C@@H](CCC(N)=O)C(=O)N1CCC[C@H]1C(=O)N[C@@H](CCC(N)=O)C(=O)N[C@@H](CCCNC(=N)N)C(=O)N[C@@H](Cc1ccccc1)C(N)=O
notes: also called D-Tyr-NPFF; (1DMe)Y8Fa
Turning to B2, the pKi in [1] is 8.55; in experiment [4], 8.1; in [5], 8.8; in [6], 8.5; in [7] it was 8.7; in [2], 9.72.

B3: Y8Fa (peptide)
peptide: YLFQPQRF-NH2
notes: also called Y8Famide; Y-8-F-amide
Take B3: the negative logarithm of the Ki (pKi) in [1] was 8.38; in experiment [2], 9.19.

B4: galanin (peptide, UniProt P22466 33-62, looked up, species assumed)
Galanin: GWTLNSAGYLLGPHAVGNHRSFSDKNGLTS
modifications: Galanin
For B4, the pKi in experiment [1] and in [2] was 5 throughout.

B5: hPP (peptide, UniProt P01298 30-65, looked up)
peptide: APLEPVYPGDNATPEQMAQYAADLRRYINMLTRPRY
With B5, the pKi in [1] and in experiment [2] was 5 in each case.

B6: rat A-18-F-amide (peptide)
peptide: AGEGLSSPFWSLAAPQRF-NH2
notes: also called NPAF
Regarding B6, the pKi in [1] worked out at 7.5; in experiment [4] it was 7.2; in experiment [5], 7.5; in experiment [6], 8.9; in [7], 8.2; in [2] it was 9. Moreover, the “EC50, extracellular acidification rate (microphysiometry), CHO cells with NPFF1 alone” value in experiment [8] was found to be 150000 pM.

B7: [Y^9]A18Fa (peptide)
peptide: AGEGLSSPYWSLAAPQRF-NH2
notes: also called [Y^9]A18Famide; [tyr^9]A-18-F-amide
For the molecule B7, the negative-log Ki (pKi) stood at 7.56 in experiment [1] and 8.5 in [2].

B8: AF-1 (peptide)
peptide: H-KNQFIRF-NH2
notes: Printed as H2N-Lys-Asn-Gln-Phe-Ile-Arg-Phe-NH2; also called FMRF-like peptide
For B8, the negative-log Ki (pKi) came out at 6.63 in experiment [1] and 7.56 in experiment [2].

B9: Tyr-MIF-1 (peptide)
chain: YPLG
modifications: not checked
For B9, the pKi in experiment [9] and in experiment [2] was 5 in each case.

B10: D-Met-FMRF amide (peptide)
peptide: FMRF
modifications: D-Met in place of L-Met, C-terminal amide
notes: also called the D-Met analog
For B10, the pKi in experiment [4] is 6.6; in [5] it was 6.2; in experiment [6] it was 6.4; in experiment [7] it was 6.2.

B11: nocistatin (peptide, UniProt Q13519 98-127, looked up, species assumed)
Nocistatin: MPRVRSLFQEQEEPEPGMEEAGEMEQKQLQ
modifications: Nocistatin
For B11, the pKi in [1] and in [2] was 5 throughout.

B12: AF-2 (peptide)
peptide: H-KHQYLRF-NH2
notes: Printed as H-Lys-His-Gln-Tyr-Leu-Arg-Phe-NH2
For B12, the pKi worked out at 7.02 in [1] and 7.96 in experiment [2].

B13: [^125I][D-Tyr^1-(NMe)Phe^3]NPFF (peptide)
peptide: [dY](125I)L[NMeF]QPQRF-NH2
For B13, the Kd in experiment [10] stood at 220 pM; in experiment [11], 460 pM; in experiment [12] it was 650 pM; in experiment [13], 170 pM; in [14] it was 335 pM; in experiment [15] it was 170 pM.

B14: Neuropeptide FF (NPFF) (peptide)
peptide: FLFQPQRF-NH2
notes: bought from Bachem; also called F-8-Fa; F8Famide
The molecule B14 displayed a pKi in experiment [16] of 8.2. Besides, the “EC50, functional activity in COS-7 cells” value in [17] stood at 9300 pM. Also, in [8], the “EC50, extracellular acidification rate (microphysiometry), CHO cells with NPFF1 alone” value is 19300 pM; the “EC50, extracellular acidification rate (microphysiometry), CHO cells with NPFF1 and the Gz/Gq chimera” value amounted to 27700 pM; the “EC50, total inositol phosphate release, Cos-7 cells with NPFF1” value stood at 23000 pM.

B15: Schisto(FLRFNH2) (peptide)
peptide: PDVDHVFLRF-NH2
notes: also called SchistFLRF
Take B15: the figures for the pKi in experiment [1] and in experiment [2] were 5.96 and 6.39, respectively.

B16: FMRF amide (peptide)
peptide: FMRF-NH2
Take B16: the pKi amounted to 8.48 in [1]; 9.1 in [4]; 8.7 in experiment [5]; 8.4 in [6]; 8 in experiment [7]; 8.49 in experiment [2].

B17: PMRFa (peptide)
peptide: PMRF-NH2
Take B17: the pKi in experiment [1] was determined as 8.55; in experiment [2] it was 9.37.

B18: FTRF (peptide)
peptide: FTRF
modifications: ends and bridges not checked
In the case of B18, the results for the pKi in experiment [1] and in experiment [2] were 7.87 and 8.16, respectively.

B19: PQRF-amide (peptide)
peptide: PQRF-NH2
notes: C-terminal tetrapeptide of NPFF; also called PGRF-amide [sic]
For the molecule B19, the pKi in experiment [1] is 8.18; in experiment [4], 7.4; in experiment [5], 7.6; in experiment [6], 7.6; in experiment [7] it was 7.6. Besides, the “% of NPPF Response, intracellular calcium mobilization” value in experiment [18] was 93 % of NPPF Response; in experiment [19], 94 % of NPPF Response. Further, the “pEC50, intracellular calcium mobilization” value in experiment [18] amounted to 6.7; in experiment [19], 7.

B20: FFRF (peptide)
peptide: FFRF
modifications: ends and bridges not checked
Take B20: the pKi in experiment [1] was found to be 8; in experiment [2] it was 8.98.

B21: Met5-Arg6-Phe7-Enk-NH2 (peptide)
peptide: YGGFMRF-NH2
notes: also called Met-Enk-NH2; Met^5, Arg^6, Phe^7-NH2 enkephalinamide
Consider B21, for which the figures for the pKi in experiment [1] and in [2] were 7.35 and 8.4, respectively.

B22: CCK8 (peptide, UniProt P06307 96-103, looked up, species assumed)
Cholecystokinin-8: DYMGWMDF
modifications: ends and bridges not checked
Regarding B22, the pKi in [1] and in experiment [2] was 5 in each case.
